In PMC8028696 (Journal of Molecular Biology, 2021) one finds Kd data, which are given here for 2 molecules.

Broadly, the Kd is a measure of binding affinity in units of concentration. A high value points to weaker binding.

This assay concerns the target SARS-CoV-2 RBD (SARS-CoV-2 (P0DTC2 reference)); strain …, UniProt P0DTC2, biotin (site-specific, BirA, on the AviTag)). The experiment in a line: BLI. (In BLI a coated tip is dipped into the sample, and binding shifts an interference pattern.)

B1: IgG 15036 (antibody, V domains shown)
VH: EVQLVESGGGLVQPGGSLRLSCAASGFDFTAYDIHWVRQAPGKGLEWVAGISASGGYTAYADSVKGRFTISADTSKNTAYLQMNSLRAEDTAVYYCARDGFHSYALDYWGQGTLVTVSS
VL: DIQMTQSPSSLSASVGDRVTITCRASQSVSSAVAWYQQKPGKAPKLLIYSASSLYSGVPSRFSGSRSGTDFTLTISSLQPEDFATYYCQQWYSLFTFGQGTKVEIK
B1 gave a Kd of 2.2 ± 0.2 nM.

B2: IgG 15046 (antibody, V domains shown)
VH: EVQLVESGGGLVQPGGSLRLSCAASGFDFGSYAMHWVRQAPGKGLEWVAGIYASGGYTDYADSVKGRFTISADTSKNTAYLQMNSLRAEDTAVYYCARGWSYYWGFDYWGQGTLVTVSS
VL: DIQMTQSPSSLSASVGDRVTITCRASQSVSSAVAWYQQKPGKAPKLLIYSASSLYSGVPSRFSGSRSGTDFTLTISSLQPEDFATYYCQQYDYGLFTFGQGTKVEIK
On to B2, for which the Kd was determined as 3.7 ± 0.1 nM.
